What was measured:
[1] = target: statine-Val (a peptide BACE-1 inhibitor)
[2] = target: T1, coumarin-labeled 10-mer peptide substrate REVNFEVEFR
T1 chain: REVNFEVEFR

B1: mouse brain BACE-1 (MES membrane preparation from wild-type mice) (protein)
chain: ETDEESEEPGRRGSFVEMVDNLRGKSGQGYYVEMTVGSPPQTLNILVDTGSSNFAVGAAPHPFLHRYYQRQLSSTYRDLRKGVYVPYTQGKWEGELGTDLVSIPHGPNVTVRANIAAITESDKFFINGSNWEGILGLAYAEIARPDDSLEPFFDSLVKQTHIPNIFSLQLCGAGFPLNQTEALASVGGSMIIGGIDHSLYTGSLWYTPIRREWYYEVIIVRVEINGQDLKMDCKEYNYDKSIVDSGTTNLRLPKKVFEAAVKSIKAASSTEKFPDGFWLGEQLVCWQAGTTPWNIFPVISLYLMGEVTNQSFRITILPQQYLRPVEDVATSQDDCYKFAVSQSSTGTVMGAVIMEGFYVVFDRARKRIGFAVSACHVHDEFRTAAVEGPFVTADMEDCGYNIPQTDESTLMTIAYVMAAICALFMLPLCLMVCQWRCLRCLRHQHDDFADDISLLK
With B1 the “substrate cleavage (HPLC product peak), brain extract” value [1] was “BACE-1 inhibitor's Stat(V) and Merck-3 led to complete abolition of substrate cleavage” and the “hydrolysis of substrate (HPLC)” value [2] was “hydrolysis was observed to be about 15% of total substrate that had been added in the reaction”.
